{"source": "paper PMC8699718", "about": "“A structurally conserved site in AUP1 binds the E2 enzyme UBE2G2 and is essential for ER-associated degradation” (PLoS Biology, 2021)", "system": "RI332 (truncated Ribophorin I)", "test": "CHX chase: RI332 degradation in HT1080 AUP1 KO cells", "assay_type": "cell-based, human", "settings": "GFP-G2BR^AUP1 co-expressed with TM-UBE2G2, HT1080 AUP1 KO", "text": "Fig 2 The G2BR of AUP1 is required for ERAD of mutant ribophorin and GFP^u. (A) HT1080 or HRD1 KO cells were transfected with plasmid encoding RI332-MYC and with plasmid encoding HRD1 as indicated. Cells were subject to CHX chase and RI332-MYC degradation monitored by western blot. GFP serves as a transfection efficiency control. (B) HT1080 or AUP1 KO cells were transfected with plasmid encoding RI332-MYC and AUP1-FLAG WT or deletion mutants assessed for RI332 degradation. Lower band (*) in MYC blot is nonspecific. (C, D) HEK293 or AUP1 KO cells were assessed for RI332 turnover as in (B). (E) HT1080 or AUP1 KO cells were transfected with GFP^u plasmid, and its degradation assessed by emetine chase, which has previously been used to assess GFP^u turnover. […] (F) HT1080 AUP1 KO cells were transfected with GFP^u and the indicated AUP1-FLAG WT or deletion mutants, and GFP^u degradation assessed as in (E). […]\nFig 8 Recruitment of UBE2G2 to the ER membrane and activation by G2BR^AUP1 is required for ERAD. (A) HT1080 or AUP1 KO cells were transfected with NHK-HA and either empty vector or MYC-UBE2G2 and NHK turnover assessed by CHX chase. (B) AUP1 KO cells were transfected with NHK-HA and GFP fusions of either a scrambled G2BR sequence (SCR) or G2BR^AUP1 and NHK turnover and levels of endogenous UBE2G2 assessed. […] (G) U-2 OS cells were transfected as in (F), and localization assessed by SIM. […]", "note": "Ends that are not written are not given here.", "data": [{"substance": "GFP-G2BR^AUP1: GFP fusion of AUP1 aa 378 to 404 (SSWARQESLQERKQALYEYARRRFTER; also: GFP fusion; UniProt Q9Y679 378-404, looked up, fragment)", "values": [{"measurement": "RI332 degradation, soluble G2BR with TM-UBE2G2", "value": "restored degradation of RI332"}]}]}
